# Laboratory results taken from patent publication US20250360236A1, “PROSTATE SPECIFIC MEMBRANE ANTIGEN (PSMA) LIGANDS” (Deutsches Krebsforschungszentrum Stiftung des öffentlichen …, priority 2022, published 2025).
# Like-named read-outs stand apart in the source and are kept apart here. Where a SMILES comes first, the peptide text is derived from it. [ ]: non-standard residue; d: D form. The star is where a group is joined. ξ: configuration not given here. X1 = CN1/C(=C/C=C/C=C/C2=[N+](CCCCCC(=O)*)c3ccc(S(=O)(=O)O)cc3C2(C)C)C(C)(C)c2cc(S(=O)(=O)[O-])ccc21; X3 = CN1/C(=C/C=C/C=C/C2=[N+](CCCCCC(=O)*)c3ccc(S(=O)(=O)[O-])cc3C2(C)C)C(C)(C)c2cc(S(=O)(=O)O)ccc21; DOTA = O=C(O)CN1CCN(CC(=O)O)CCN(CC(=O)*)CCN(CC(=O)O)CC1; EuK = O=C(O)CC[C@H](NC(=O)N[C@@H](CCCCN*)C(=O)O)C(=O)O; X2 = O=C(O)CC[C@@H](NC(=O)N[C@H](CCCCN*)C(=O)O)C(=O)O; 2Nal = N[C@@H](Cc1ccc2ccccc2c1)C(=O)O; d2Nal = N[C@H](Cc1ccc2ccccc2c1)C(=O)O; Trx = NC[C@H]1CC[C@H](C(=O)O)CC1; ξK = NCCCCC(N)C(=O)O; βAla = NCCC(=O)O; Sar = CNCC(=O)O
# Tests used:
# PSMA = biological target: T1, PSMA (Homo sapiens, UniProt Q04609); conditions: cited from earlier work
# T1 construct: determined in vitro using PSMA^+-cells (LNCaP); host or cells: LNCaP cells
# T1 sequence (Q04609 whole entry): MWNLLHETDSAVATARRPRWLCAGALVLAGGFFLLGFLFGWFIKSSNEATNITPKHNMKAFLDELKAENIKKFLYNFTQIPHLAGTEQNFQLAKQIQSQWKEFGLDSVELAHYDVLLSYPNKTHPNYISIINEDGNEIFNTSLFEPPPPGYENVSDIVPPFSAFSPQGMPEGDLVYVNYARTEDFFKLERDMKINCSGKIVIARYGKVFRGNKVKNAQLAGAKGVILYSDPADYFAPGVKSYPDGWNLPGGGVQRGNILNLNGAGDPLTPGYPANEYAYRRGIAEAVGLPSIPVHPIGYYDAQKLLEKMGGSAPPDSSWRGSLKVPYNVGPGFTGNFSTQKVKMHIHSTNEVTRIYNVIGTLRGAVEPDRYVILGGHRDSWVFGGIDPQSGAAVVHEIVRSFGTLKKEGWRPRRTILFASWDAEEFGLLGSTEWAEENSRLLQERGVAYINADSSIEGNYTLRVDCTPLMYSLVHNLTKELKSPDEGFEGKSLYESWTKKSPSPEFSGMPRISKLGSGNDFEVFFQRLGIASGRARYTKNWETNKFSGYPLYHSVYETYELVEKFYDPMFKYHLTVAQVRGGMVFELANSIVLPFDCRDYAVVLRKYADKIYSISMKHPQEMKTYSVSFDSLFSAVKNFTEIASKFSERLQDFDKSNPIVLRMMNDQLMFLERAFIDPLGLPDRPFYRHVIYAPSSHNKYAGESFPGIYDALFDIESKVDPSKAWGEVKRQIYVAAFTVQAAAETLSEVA
# PSMA+-cells (LNCaP) = experiment: Cell surface binding and internalization experiments; assay type: cell-based; conditions: 68Ga-labeled compounds, 30 nM, 45 min 37 °C, specific uptake by blockage with 500 μM 2-PMPA, mean ± SD n=3
# Procedure: For internalization experiments, 10^5 cells per well were seeded in poly-L-lysine coated 24-well cell culture plates 24 h before incubation. After washing, the cells were incubated with 30 nM of the radiolabeled compound for 45 min at 37° C. Cellular uptake was terminated by washing 3 times with 1 mL of ice-cold PBS. To remove surface-bound radioactivity, cells were incubated twice with 0.5 mL glycine-HCl in PBS (50 mM, pH=2.8) for 5 min. The cells were washed with 1 mL of ice-cold PBS and lysed using 0.3 N NaOH (0.5 mL). The surface-bound and the internalized fractions were measured in a gamma counter. The cell uptake was calculated as percent of the initially added radioactivity bound to 10^5 cells [% ID/10^5 cells].
# in vivo = experiment: in vivo; design: species or system BALB/c nu/nu mice; conditions: male, BALB/c nu/nu, mouse, iv, 0.06 nmol, total radioactivity; for tissue to tissue ratio at 1 h: LNCaP Tumor-to-Organ ratio; for tissue uptake at 1 h: Organ distribution
# LNCaP xenograft tumors = conditions: cited from earlier work
molecule,measurement,setting,value
[Glu-urea-Lys(Ahx)]2-HBED-CC [^68Ga-PSMA-10],Kd,"PSMA; radioligand 68Ga-PSMA-10, reference (1)",3.8 nM
"O=C(O)CC[C@H](NC(=O)N[C@@H](CCCCNC(=O)[C@H](Cc1ccc2ccccc2c1)NC(=O)[C@H]1CC[C@H](CNC(=O)CN2CCN(CC(=O)O)CCN(CC(=O)O)CCN(CC(=O)O)CC2)CC1)C(=O)O)C(=O)O [PSMA-617, reference compound]",Specifically cell surface bound,PSMA+-cells (LNCaP),0.3 ± 0.1 % AR/10^5 cells
same,Specifically internalized,PSMA+-cells (LNCaP),1.2 ± 0.6 % AR/10^5 cells
same,Ki,"PSMA; ki-value for PSMA-617 from Benesova et al. (3), read-out: ki free ligands",2.3 ± 2.9 nM
"CN(CC(=O)NC[C@H]1CC[C@H](C(=O)N[C@@H](Cc2ccc3ccccc3c2)C(=O)NCCCC[C@H](NC(=O)N[C@@H](CCC(=O)O)C(=O)O)C(=O)O)CC1)C(=O)CN(C)C(=O)CN(C)C(=O)CN(C)C(=O)CN(C)C(=O)[C@H](CCCCNC(=O)CN1CCN(CC(=O)O)CCN(CC(=O)O)CCN(CC(=O)O)CC1)NC(=O)CN(C)C(=O)CN(C)C(=O)CN(C)C(=O)CN(C)C(=O)CN(C)C(=O)CCNC(=O)CCCCC[N+]1=C(/C=C/C=C/C=C2/N(C)c3ccc(S(=O)(=O)O)cc3C2(C)C)C(C)(C)c2cc(S(=O)(=O)[O-])ccc21 [BP-1, Glu-urea-Lys-2-Nal-Chx-Sar5-Lys(DOTA)-Sar5-bAla-sulfoCy5] ({X3-βAla}-[Sar][Sar][Sar][Sar][Sar]K(DOTA)[Sar][Sar][Sar][Sar][Sar][Trx][2Nal]-EuK)",Specifically cell surface bound,PSMA+-cells (LNCaP),1.3 ± 0.6 % AR/10^5 cells
same,Specifically internalized,PSMA+-cells (LNCaP),1.1 ± 1.0 % AR/10^5 cells
"CN(CC(=O)NC[C@H]1CC[C@H](C(=O)N[C@H](Cc2ccc3ccccc3c2)C(=O)NCCCC[C@@H](NC(=O)N[C@H](CCC(=O)O)C(=O)O)C(=O)O)CC1)C(=O)CN(C)C(=O)CN(C)C(=O)CN(C)C(=O)CN(C)C(=O)C(CCCCNC(=O)CCCCC[N+]1=C(/C=C/C=C/C=C2/N(C)c3ccc(S(=O)(=O)[O-])cc3C2(C)C)C(C)(C)c2cc(S(=O)(=O)O)ccc21)NC(=O)CN(C)C(=O)CN(C)C(=O)CN(C)C(=O)CN(C)C(=O)CN(C)C(=O)CCNC(=O)CN1CCN(CC(=O)O)CCN(CC(=O)O)CCN(CC(=O)O)CC1 (stereo partly shown) [^177Lu-BP-4, metal not drawn] ({DOTA-βAla}-[Sar][Sar][Sar][Sar][Sar][ξK](X1)[Sar][Sar][Sar][Sar][Sar][Trx][d2Nal]-X2)",tissue to tissue ratio at 1 h,in vivo; Blood,25.9 ± 9.14
same,tissue to tissue ratio at 1 h,in vivo; Brain,275 ± 63.6
same,tissue to tissue ratio at 1 h,in vivo; Heart,48.6 ± 15.7
same,tissue to tissue ratio at 1 h,in vivo; Intestine,49.3 ± 18.2
same,tissue to tissue ratio at 1 h,in vivo; Kidney,0.17 ± 0.08
same,tissue to tissue ratio at 1 h,in vivo; Liver,36.1 ± 6.7
same,tissue to tissue ratio at 1 h,in vivo; Lung,12.1 ± 2.03
same,tissue to tissue ratio at 1 h,in vivo; Muscle,110 ± 51.7
same,tissue to tissue ratio at 1 h,in vivo; Spleen,7.83 ± 0.85
same,tissue uptake at 1 h,in vivo; Blood,0.23 ± 0.08 %ID/g
same,tissue uptake at 1 h,in vivo; Brain,0.02 ± 0.002 %ID/g
same,tissue uptake at 1 h,in vivo; Heart,0.12 ± 0.02 %ID/g
same,tissue uptake at 1 h,in vivo; Intestine,0.12 ± 0.04 %ID/g
same,tissue uptake at 1 h,in vivo; Kidney,37.5 ± 12.1 %ID/g
same,tissue uptake at 1 h,in vivo; Liver,0.14 ± 0.01 %ID/g
same,tissue uptake at 1 h,in vivo; Lung,0.4 ± 0.04 %ID/g
same,tissue uptake at 1 h,in vivo; Muscle,0.06 ± 0.002 %ID/g
same,tissue uptake at 1 h,in vivo; Spleen,0.59 ± 0.12 %ID/g
same,tissue uptake at 1 h,in vivo; Tumor LNCaP,4.3 ± 0.27 %ID/g
O=C([O-])CN1CCN(CC(=O)[O-])CCN(CC(=O)NCC2CCC(C(=O)N[C@@H](Cc3ccc4ccccc4c3)C(=O)NCCCC[C@H](NC(=O)N[C@@H](CCC(=O)O)C(=O)O)C(=O)O)CC2)CCN(CC(=O)[O-])CC1.[177Lu+3] (stereo partly shown) [^177Lu-PSMA-617],"tumor uptake in LNCaP xenograft tumors, reference compounds","LNCaP xenograft tumors; reference values (4), 1 h p.i. printed for 177Lu-PSMA-617",8.47±4.09 % ID/g
same,"kidney uptake, reference compounds",LNCaP xenograft tumors; reference values (4),137.2±77.8 % ID/g
^68Ga-Glu-urea-Lys-2-Nal-Chx-Lys(IRDye800CW)-DOTA,"kidney uptake, reference compounds","LNCaP xenograft tumors; mouse, in vivo",65.64±6.60 % ID/g
"CN(CC(=O)NC[C@H]1CC[C@H](C(=O)N[C@@H](Cc2ccc3ccccc3c2)C(=O)NCCCC[C@H](NC(=O)N[C@@H](CCC(=O)O)C(=O)O)C(=O)O)CC1)C(=O)CN(C)C(=O)CN(C)C(=O)CN(C)C(=O)CN(C)C(=O)[C@H](CCCCNC(=O)CCCCC[N+]1=C(/C=C/C=C/C=C2/N(C)c3ccc(S(=O)(=O)O)cc3C2(C)C)C(C)(C)c2cc(S(=O)(=O)[O-])ccc21)NC(=O)CN(C)C(=O)CN(C)C(=O)CN(C)C(=O)CN(C)C(=O)CN(C)C(=O)CCNC(=O)CN1CCN(CC(=O)O)CCN(CC(=O)O)CCN(CC(=O)O)CC1 [BP-4, Glu-urea-Lys-2-Nal-Chx-Sar5-Lys(sulfoCy5)-Sar5-bAla-DOTA] ({DOTA-βAla}-[Sar][Sar][Sar][Sar][Sar]K(X3)[Sar][Sar][Sar][Sar][Sar][Trx][2Nal]-EuK)",Specifically cell surface bound,PSMA+-cells (LNCaP),0.8 ± 1.0 % AR/10^5 cells
same,Specifically internalized,PSMA+-cells (LNCaP),0.4 ± 0.7 % AR/10^5 cells
"CN(CC(=O)NC[C@H]1CC[C@H](C(=O)N[C@H](Cc2ccc3ccccc3c2)C(=O)NCCCC[C@@H](NC(=O)N[C@H](CCC(=O)O)C(=O)O)C(=O)O)CC1)C(=O)CN(C)C(=O)CN(C)C(=O)CN(C)C(=O)CN(C)C(=O)C(CCCCNC(=O)CN1CCN(CC(=O)O)CCN(CC(=O)O)CCN(CC(=O)O)CC1)NC(=O)CN(C)C(=O)CN(C)C(=O)CN(C)C(=O)CN(C)C(=O)CN(C)C(=O)CCNC(=O)CCCCC[N+]1=C(/C=C/C=C/C=C2/N(C)c3ccc(S(=O)(=O)[O-])cc3C2(C)C)C(C)(C)c2cc(S(=O)(=O)O)ccc21 (stereo partly shown) [^177Lu-BP-1, metal not drawn] ({X1-βAla}-[Sar][Sar][Sar][Sar][Sar][ξK](DOTA)[Sar][Sar][Sar][Sar][Sar][Trx][d2Nal]-X2)",tissue to tissue ratio at 1 h,in vivo; Blood,40 ± 4.75
same,tissue to tissue ratio at 1 h,in vivo; Brain,423 ± 81.3
same,tissue to tissue ratio at 1 h,in vivo; Heart,64.5 ± 12.8
same,tissue to tissue ratio at 1 h,in vivo; Intestine,76.3 ± 13.1
same,tissue to tissue ratio at 1 h,in vivo; Kidney,0.34 ± 0.04
same,tissue to tissue ratio at 1 h,in vivo; Liver,27.8 ± 5.94
same,tissue to tissue ratio at 1 h,in vivo; Lung,18.2 ± 4.54
same,tissue to tissue ratio at 1 h,in vivo; Muscle,165 ± 31.4
same,tissue to tissue ratio at 1 h,in vivo; Spleen,8.05 ± 1.05
same,tissue uptake at 1 h,in vivo; Blood,0.16 ± 0.02 %ID/g
same,tissue uptake at 1 h,in vivo; Brain,0.02 ± 0.001 %ID/g
same,tissue uptake at 1 h,in vivo; Heart,0.1 ± 0.004 %ID/g
same,tissue uptake at 1 h,in vivo; Intestine,0.08 ± 0.01 %ID/g
same,tissue uptake at 1 h,in vivo; Kidney,18.9 ± 4.56 %ID/g
same,tissue uptake at 1 h,in vivo; Liver,0.24 ± 0.03 %ID/g
same,tissue uptake at 1 h,in vivo; Lung,0.38 ± 0.03 %ID/g
same,tissue uptake at 1 h,in vivo; Muscle,0.04 ± 0.004 %ID/g
same,tissue uptake at 1 h,in vivo; Spleen,0.78 ± 0.03 %ID/g
same,tissue uptake at 1 h,in vivo; Tumor LNCaP,5.85 ± 1.16 %ID/g
